# T1: GST-tagged α4 repeat region of α-spectrin (human, UniProt P02549 370-475)
# T1 sequence (looked up): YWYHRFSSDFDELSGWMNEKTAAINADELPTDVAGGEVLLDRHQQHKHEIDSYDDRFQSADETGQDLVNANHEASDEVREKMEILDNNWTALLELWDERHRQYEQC
# B1: SBP1-C (analyte of the surface plasmon resonance) (domain or fragment)
# chain: GKRKGYYLAKKQKKEQMLEQNPEQNPEQNPEQNAQQNAQQNAQQNAQQNSQQNTQQNTQQNTQQKTQQNPQQNAQKTHNNNPQPNPQQKQLLEKPKDKLL
# Columns and labels:
# [1] = target: GST-tagged 16 kDa domain of protein 4.1R (human); experiment: SPR
# GST-tagged 16 kDa domain of protein 4.1R (human), sequence (P11171 whole entry, the tested form may be a part): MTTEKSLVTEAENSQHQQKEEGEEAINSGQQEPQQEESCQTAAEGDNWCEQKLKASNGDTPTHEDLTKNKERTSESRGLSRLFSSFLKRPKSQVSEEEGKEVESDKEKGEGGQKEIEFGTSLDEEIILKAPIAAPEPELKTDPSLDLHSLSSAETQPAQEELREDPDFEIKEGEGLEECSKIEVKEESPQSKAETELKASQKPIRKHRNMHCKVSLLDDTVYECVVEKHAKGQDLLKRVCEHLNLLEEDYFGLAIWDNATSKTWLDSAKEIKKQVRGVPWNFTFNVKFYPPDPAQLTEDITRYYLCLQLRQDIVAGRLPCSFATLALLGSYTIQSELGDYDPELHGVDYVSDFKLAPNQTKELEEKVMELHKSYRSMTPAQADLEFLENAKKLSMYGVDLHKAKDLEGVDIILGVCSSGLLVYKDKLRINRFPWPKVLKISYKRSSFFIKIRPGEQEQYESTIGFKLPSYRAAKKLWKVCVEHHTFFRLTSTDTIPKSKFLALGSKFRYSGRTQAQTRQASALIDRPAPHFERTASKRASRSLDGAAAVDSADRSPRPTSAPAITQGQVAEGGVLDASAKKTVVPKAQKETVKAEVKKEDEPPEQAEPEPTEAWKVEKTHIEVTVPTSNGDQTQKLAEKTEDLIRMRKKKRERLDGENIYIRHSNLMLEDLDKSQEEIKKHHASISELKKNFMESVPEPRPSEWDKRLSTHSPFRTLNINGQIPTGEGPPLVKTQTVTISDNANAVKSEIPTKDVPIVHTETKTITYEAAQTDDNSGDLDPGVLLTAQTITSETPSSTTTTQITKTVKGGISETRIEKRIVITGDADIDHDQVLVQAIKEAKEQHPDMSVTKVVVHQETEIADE
# [2] = target: T1, GST-tagged α4 repeat region of …; experiment: SPR
binder,measurement,setting,value
B1,Ka,[1],1.73e+07 M⁻¹
same,Kd,[1],58.5 nM
same,koff,[1],0.000459 s⁻¹
same,Ka,[2],5.7e+07 ± 1.28 M⁻¹
same,Kd,[2],20.4 nM
same,koff,[2],0.00031 ± 0.42 s⁻¹

# Reference: paper PMC4638388 (Biochimica et biophysica acta, 2015)
